Source: article PMC8041466

What was measured:
[1] = target: Cytotect (HCMV-IgG hyperimmunoglobulin preparation, human plasma pool, polyclonal IgG) (human); assay: flow cytometry on cells; same set-up; pairs of the vFcγR on infected cells with Cytotect IgG
[2] = target: Rituximab (humanized anti-hCD20 IgG1) (human); assay: flow cytometry on cells; same set-up; pairs of the CD4-tailed vFcγR on the cells with Rtx
Rituximab (humanized anti-hCD20 IgG1) (human), sequence (heavy, as listed by the source, chain 1 of 2): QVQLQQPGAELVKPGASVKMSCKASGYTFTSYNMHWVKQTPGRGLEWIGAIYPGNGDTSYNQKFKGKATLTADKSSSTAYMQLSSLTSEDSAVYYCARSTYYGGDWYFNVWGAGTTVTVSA
Rituximab (humanized anti-hCD20 IgG1) (human), sequence (light, as listed by the source, chain 2 of 2): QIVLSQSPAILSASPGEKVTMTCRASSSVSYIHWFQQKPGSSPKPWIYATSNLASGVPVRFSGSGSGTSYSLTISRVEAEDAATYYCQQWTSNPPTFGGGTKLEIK

Substance	percent reduction of FcγRIII binding [1] [%]	percent reduction of FcγRIII binding [2] [%]
gp68 natively expressed on HCMV AD169/pBAC2 mutant-infected MRC-5 cells (from UniProt P16739 24-345) (natural protein)	60	–
gp68-CD4 (gp68 with the transmembrane and cytosolic domains of human CD4)	–	60
